Results on two compounds are retold here after patent publication US20100222251A1, “MIXTURE COMPRISING AN AMYLIN PEPTIDE AND A PROTRACTED INSULIN” (Novo Nordisk A/S, priority 2007, published 2010).

A short description of the data set: Solubility versus pH curves (centrifugation, reverse HPLC). Type of data set: physicochemical. On the procedure: Solubility versus pH curves were measured in the following way. A formulation was prepared and aliquotes were adjusted to pH values in the desired range by adding HClO4 or HCl and NaOH. These samples were left equilibrating at room temperature for 2-3 days. Then the samples were centrifuged. A small aliquot of each sample was withdrawn for reverse HPLC analysis for determination of the concentration of the proteins in solution. The pH of each sample was measured after the centrifugation, and the concentration of each protein was depicted versus the measured pH.

Where only a bound is given, the exact number is not on record here.

As to GlyA21 ArgB31 ArgB32 human insulin, for the setting “Example 1, 0.6 mM GlyA21 ArgB31 ArgB32 human insulin, 0.46 mM Zn(Ac)2, 30 mM phenol”, the “pH of complete precipitation (below physiological pH)” value is given as below 7.4 pH. Besides, the “precipitation versus pH compared to formulation of the insulin analogue alone” value (Example 2 mix, 0.6 mM insulin analogue, 0.46 mM Zn(Ac)2, 30 mM phenol, 50 μM pramlintide) is listed as “not changed”. For the same compound, the “solubility state at pH 7” value (Example 3 mix, pH 7, 0.6 mM GlyA21 ArgB31 ArgB32 human insulin, 0.3 mM Zn(Ac)2, 30 mM phenol, 100 μM pramlintide) is given as “completely precipitated”. For the same compound, the “pH above which completely precipitated” value (FIG. 1, 0.6 mM GlyA21 ArgB31 ArgB32 human insulin, 0.46 mM Zn(Ac)2, 30 mM phenol) was above 6.5 pH.
For the compound `CC[C@H](C)[C@H](NC(=O)[C@@H]1CCCN1C(=O)CNC(=O)[C@H](Cc1ccccc1)NC(=O)[C@H](CC(N)=O)NC(=O)[C@H](CC(N)=O)NC(=O)[C@H](CO)NC(=O)[C@H](CO)NC(=O)[C@H](Cc1c[nH]cn1)NC(=O)[C@@H](NC(=O)[C@H](CC(C)C)NC(=O)[C@H](Cc1ccccc1)NC(=O)[C@H](CC(N)=O)NC(=O)[C@H](C)NC(=O)[C@H](CC(C)C)NC(=O)[C@H](CCCNC(=N)N)NC(=O)[C@H](CCC(N)=O)NC(=O)[C@@H](NC(=O)[C@H](C)NC(=O)[C@@H]1CSSC[C@H](NC(=O)[C@@H](N)CCCCN)C(=O)N[C@@H](CC(N)=O)C(=O)N[C@@H]([C@@H](C)O)C(=O)N[C@@H](C)C(=O)N[C@@H]([C@@H](C)O)C(=O)N1)[C@@H](C)O)C(C)C)C(=O)N[C@@H](CC(C)C)C(=O)N1CCC[C@H]1C(=O)N1CCC[C@H]1C(=O)N[C@H](C(=O)N[C@@H](CC(N)=O)C(=O)N[C@H](C(=O)NCC(=O)N[C@@H](CO)C(=O)N[C@@H](CC(N)=O)C(=O)N[C@H](C(=O)N[C@@H](Cc1ccc(O)cc1)C(N)=O)[C@@H](C)O)C(C)C)[C@@H](C)O` [pramlintide, Pro25 Pro28 Pro29-h-amylin], under “Example 2 mix, 0.6 mM GlyA21 ArgB31 ArgB32 human insulin, 0.46 mM Zn(Ac)2, 30 mM phenol, 50 μM pramlintide”, the “pH of full precipitation (below physiological pH)” value was below 7.4 pH.
